Results on 125 sequences are retold here after the supplement of paper PMC9112550, “Optimization of the antimicrobial peptide Bac7 by deep mutational scanning” (BMC Biology, 2022).

The test system of the series is Escherichia coli TOP10. Put plainly: shrunken log2 fold change of peptide-encoding DNA abundance (4.5 h post-induction vs induction); higher = less antimicrobial activity (less host growth inhibition). To be noted: time post-induction: 4.5 h; library: site-saturation at positions 5, 18, 19, 20.
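Further: peptides expressed intracellularly from a pBAD plasmid library in pooled LB shake-flask culture, induced with 0.3% L-arabinose, DNA abundance read by NGS, three biological replicates, DESeq2 with apeglm shrinkage.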

On to RRIRGRPPRLPRPRPRPFAGPRP, for which the “shrunken log2 fold change” value stood at 0.00108.

With RRIRFRPPRLPRPRPRPHMNPRP, the “shrunken log2 fold change” value was -0.774.

As for RRIRMRPPRLPRPRPRPGVWPRP, the “shrunken log2 fold change” value stood at 0.723.

In the case of RRIRDRPPRLPRPRPRPHSQPRP, the “shrunken log2 fold change” value is -0.0254.

As for RRIRCRPPRLPRPRPRPATHPRP, the “shrunken log2 fold change” value was -0.0187.

As to RRIRARPPRLPRPRPRPWGLPRP, the “shrunken log2 fold change” value came out at 0.617.

As to RRIRSRPPRLPRPRPRPNLIPRP, the “shrunken log2 fold change” value is -0.74.

RRIRYRPPRLPRPRPRPSTAPRP: the “shrunken log2 fold change” value is -0.0926.

Take RRIRCRPPRLPRPRPRPNQRPRP: the “shrunken log2 fold change” value was -0.093.

Consider RRIRWRPPRLPRPRPRPFSMPRP, for which the “shrunken log2 fold change” value is -0.0921.

In the case of RRIRGRPPRLPRPRPRPYTGPRP, the “shrunken log2 fold change” value is -0.707.

With RRIRYRPPRLPRPRPRPGKTPRP, the “shrunken log2 fold change” value was -0.0233.

On to RRIRDRPPRLPRPRPRPLHAPRP, for which the “shrunken log2 fold change” value came to 0.317.

Turning to RRIRMRPPRLPRPRPRPTNVPRP, the “shrunken log2 fold change” value was -0.0668.

As for RRIRGRPPRLPRPRPRPYRAPRP, the “shrunken log2 fold change” value was -0.233.

Consider RRIRDRPPRLPRPRPRPQKFPRP, for which the “shrunken log2 fold change” value was -0.0467.

As for RRIRARPPRLPRPRPRPISHPRP, the “shrunken log2 fold change” value was -0.131.

Take RRIRLRPPRLPRPRPRPVKWPRP: the “shrunken log2 fold change” value is 0.215.

For the sequence RRIRMRPPRLPRPRPRPTYMPRP, the “shrunken log2 fold change” value is -0.131.

As to RRIRARPPRLPRPRPRPEPYPRP, the “shrunken log2 fold change” value was 0.34.

With RRIRSRPPRLPRPRPRPDWMPRP, the “shrunken log2 fold change” value stood at 0.0892.

For the sequence RRIRVRPPRLPRPRPRPEYNPRP, the “shrunken log2 fold change” value is -0.185.

As for RRIRLRPPRLPRPRPRPPMVPRP, the “shrunken log2 fold change” value was -0.192.

Consider RRIRCRPPRLPRPRPRPSVDPRP, for which the “shrunken log2 fold change” value was -0.139.

As to RRIRERPPRLPRPRPRPEQWPRP, the “shrunken log2 fold change” value stood at 0.127.

As to RRIRVRPPRLPRPRPRPFNHPRP, the “shrunken log2 fold change” value was -0.106.

As for RRIRTRPPRLPRPRPRPIHIPRP, the “shrunken log2 fold change” value is 0.0274.

Take RRIRWRPPRLPRPRPRPQGEPRP: the “shrunken log2 fold change” value stood at 0.29.

With RRIRDRPPRLPRPRPRPKNNPRP, the “shrunken log2 fold change” value was -0.556.

In the case of RRIRNRPPRLPRPRPRPYSQPRP, the “shrunken log2 fold change” value is -0.0488.

On to RRIRARPPRLPRPRPRPYKLPRP, for which the “shrunken log2 fold change” value was -0.467.

As for RRIRFRPPRLPRPRPRPRRIPRP, the “shrunken log2 fold change” value is -0.116.

Turning to RRIRERPPRLPRPRPRPQPMPRP, the “shrunken log2 fold change” value was -0.185.

In the case of RRIRFRPPRLPRPRPRPHDFPRP, the “shrunken log2 fold change” value was -0.199.

For the sequence RRIRGRPPRLPRPRPRPHFDPRP, the “shrunken log2 fold change” value worked out at 0.469.

Turning to RRIRRRPPRLPRPRPRPPAQPRP, the “shrunken log2 fold change” value was found to be 0.535.

Consider RRIRDRPPRLPRPRPRPTSEPRP, for which the “shrunken log2 fold change” value stood at 0.236.

In the case of RRIRQRPPRLPRPRPRPRFNPRP, the “shrunken log2 fold change” value is -0.244.

For RRIRYRPPRLPRPRPRPLCVPRP, the “shrunken log2 fold change” value is -0.722.

As to RRIRNRPPRLPRPRPRPSFYPRP, the “shrunken log2 fold change” value was -0.658.

Take RRIRKRPPRLPRPRPRPVYTPRP: the “shrunken log2 fold change” value was -0.356.

RRIRPRPPRLPRPRPRPMGKPRP: the “shrunken log2 fold change” value was -0.0536.

For the sequence RRIRIRPPRLPRPRPRPWEDPRP, the “shrunken log2 fold change” value is -0.202.

With RRIRSRPPRLPRPRPRPQYRPRP, the “shrunken log2 fold change” value was -0.234.

As to RRIRFRPPRLPRPRPRPDCLPRP, the “shrunken log2 fold change” value is -0.0266.

On to RRIRGRPPRLPRPRPRPLMKPRP, for which the “shrunken log2 fold change” value stood at 0.635.

For the sequence RRIRVRPPRLPRPRPRPPTQPRP, the “shrunken log2 fold change” value was found to be 0.273.

Take RRIRMRPPRLPRPRPRPFIYPRP: the “shrunken log2 fold change” value was found to be 0.892.

With RRIRRRPPRLPRPRPRPWPRPRP, the “shrunken log2 fold change” value turned out to be 0.349.

Regarding RRIRQRPPRLPRPRPRPPETPRP, the “shrunken log2 fold change” value was found to be 0.00852.

In the case of RRIRYRPPRLPRPRPRPSDGPRP, the “shrunken log2 fold change” value was -0.327.

As for RRIRRRPPRLPRPRPRPRSEPRP, the “shrunken log2 fold change” value came to 0.342.

For the sequence RRIRWRPPRLPRPRPRPARIPRP, the “shrunken log2 fold change” value was found to be 0.176.

For the sequence RRIRYRPPRLPRPRPRPQWSPRP, the “shrunken log2 fold change” value was -0.0453.

As to RRIRKRPPRLPRPRPRPRQLPRP, the “shrunken log2 fold change” value was found to be 0.8.

As for RRIRPRPPRLPRPRPRPRPCPRP, the “shrunken log2 fold change” value was 0.188.

As to RRIRMRPPRLPRPRPRPYFTPRP, the “shrunken log2 fold change” value was -0.362.

Regarding RRIRRRPPRLPRPRPRPHEQPRP, the “shrunken log2 fold change” value is 0.0519.

Take RRIRQRPPRLPRPRPRPQAHPRP: the “shrunken log2 fold change” value is -0.23.

Turning to RRIRDRPPRLPRPRPRPEETPRP, the “shrunken log2 fold change” value is -0.00131.

RRIRVRPPRLPRPRPRPWYDPRP: the “shrunken log2 fold change” value was -0.00243.

For the sequence RRIRIRPPRLPRPRPRPTEWPRP, the “shrunken log2 fold change” value amounted to 0.133.

For RRIRARPPRLPRPRPRPEFQPRP, the “shrunken log2 fold change” value was 0.666.

RRIRQRPPRLPRPRPRPPQSPRP: the “shrunken log2 fold change” value was 0.671.

RRIRDRPPRLPRPRPRPHKAPRP: the “shrunken log2 fold change” value is -0.0142.

On to RRIRMRPPRLPRPRPRPGRGPRP, for which the “shrunken log2 fold change” value was found to be 1.26.

Take RRIRARPPRLPRPRPRPKQIPRP: the “shrunken log2 fold change” value was 0.146.

For RRIRVRPPRLPRPRPRPMLLPRP, the “shrunken log2 fold change” value was -0.322.

In the case of RRIRTRPPRLPRPRPRPTRAPRP, the “shrunken log2 fold change” value turned out to be 0.687.

Regarding RRIRVRPPRLPRPRPRPNNYPRP, the “shrunken log2 fold change” value was -0.726.

Consider RRIRVRPPRLPRPRPRPECDPRP, for which the “shrunken log2 fold change” value was 0.247.

With RRIRARPPRLPRPRPRPDSYPRP, the “shrunken log2 fold change” value was -0.111.

As to RRIRMRPPRLPRPRPRPANPPRP, the “shrunken log2 fold change” value is 0.267.

Consider RRIRVRPPRLPRPRPRPMQTPRP, for which the “shrunken log2 fold change” value worked out at 0.00859.

Regarding RRIRSRPPRLPRPRPRPHDIPRP, the “shrunken log2 fold change” value was -0.0108.

Regarding RRIRHRPPRLPRPRPRPMDAPRP, the “shrunken log2 fold change” value came to 0.00875.

RRIRLRPPRLPRPRPRPRKVPRP: the “shrunken log2 fold change” value worked out at 0.0909.

Take RRIRPRPPRLPRPRPRPNELPRP: the “shrunken log2 fold change” value was -0.313.

Regarding RRIRDRPPRLPRPRPRPHHMPRP, the “shrunken log2 fold change” value was -0.128.

In the case of RRIRSRPPRLPRPRPRPQHMPRP, the “shrunken log2 fold change” value is -0.336.

As for RRIRWRPPRLPRPRPRPLFQPRP, the “shrunken log2 fold change” value was -0.0127.

As to RRIRCRPPRLPRPRPRPTRAPRP, the “shrunken log2 fold change” value is 0.632.

With RRIRIRPPRLPRPRPRPDATPRP, the “shrunken log2 fold change” value came out at 0.0122.

As for RRIRMRPPRLPRPRPRPKAVPRP, the “shrunken log2 fold change” value was found to be 0.0216.

On to RRIRTRPPRLPRPRPRPINEPRP, for which the “shrunken log2 fold change” value was -0.405.

RRIRTRPPRLPRPRPRPFADPRP: the “shrunken log2 fold change” value is -0.112.

RRIRGRPPRLPRPRPRPVERPRP: the “shrunken log2 fold change” value stood at 0.5.

As to RRIRKRPPRLPRPRPRPNNMPRP, the “shrunken log2 fold change” value is -0.304.

As for RRIRQRPPRLPRPRPRPQCVPRP, the “shrunken log2 fold change” value was -0.0168.

RRIRCRPPRLPRPRPRPTFFPRP: the “shrunken log2 fold change” value came to 0.114.

Consider RRIRSRPPRLPRPRPRPGPAPRP, for which the “shrunken log2 fold change” value came out at 0.682.

RRIRKRPPRLPRPRPRPVGDPRP: the “shrunken log2 fold change” value was 0.247.

In the case of RRIRSRPPRLPRPRPRPAINPRP, the “shrunken log2 fold change” value is -0.131.

With RRIRCRPPRLPRPRPRPMYQPRP, the “shrunken log2 fold change” value is -0.265.

Take RRIRQRPPRLPRPRPRPMTTPRP: the “shrunken log2 fold change” value was 3.23.

RRIRRRPPRLPRPRPRPFDIPRP: the “shrunken log2 fold change” value is -0.0362.

For the sequence RRIRCRPPRLPRPRPRPTSRPRP, the “shrunken log2 fold change” value is -0.0338.

For the sequence RRIRDRPPRLPRPRPRPQFNPRP, the “shrunken log2 fold change” value was -0.195.

Take RRIRERPPRLPRPRPRPQITPRP: the “shrunken log2 fold change” value was -0.778.

On to RRIRDRPPRLPRPRPRPWFEPRP, for which the “shrunken log2 fold change” value is -0.175.

Regarding RRIRGRPPRLPRPRPRPWGMPRP, the “shrunken log2 fold change” value is 0.0572.

For RRIRMRPPRLPRPRPRPPIKPRP, the “shrunken log2 fold change” value was determined as 0.288.

As to RRIRFRPPRLPRPRPRPPFFPRP, the “shrunken log2 fold change” value was 0.243.

Consider RRIRLRPPRLPRPRPRPCHAPRP, for which the “shrunken log2 fold change” value was -0.235.

In the case of RRIRKRPPRLPRPRPRPIASPRP, the “shrunken log2 fold change” value is 0.0246.

Take RRIRCRPPRLPRPRPRPTEWPRP: the “shrunken log2 fold change” value stood at 0.063.

Regarding RRIRARPPRLPRPRPRPAAVPRP, the “shrunken log2 fold change” value came to 0.8.

For RRIRSRPPRLPRPRPRPYQIPRP, the “shrunken log2 fold change” value was -0.106.

For the sequence RRIRFRPPRLPRPRPRPLGQPRP, the “shrunken log2 fold change” value was -0.187.

For RRIRQRPPRLPRPRPRPQEIPRP, the “shrunken log2 fold change” value worked out at 0.0292.

Regarding RRIRFRPPRLPRPRPRPERDPRP, the “shrunken log2 fold change” value is -0.0622.

For RRIRTRPPRLPRPRPRPYFAPRP, the “shrunken log2 fold change” value was -0.193.

With RRIRLRPPRLPRPRPRPTCNPRP, the “shrunken log2 fold change” value was -0.4.

With RRIRPRPPRLPRPRPRPMGLPRP, the “shrunken log2 fold change” value came out at 0.0513.

In the case of RRIRVRPPRLPRPRPRPYVQPRP, the “shrunken log2 fold change” value is -0.918.

On to RRIRWRPPRLPRPRPRPYVWPRP, for which the “shrunken log2 fold change” value is -0.0228.

On to RRIRDRPPRLPRPRPRPGMFPRP, for which the “shrunken log2 fold change” value was 0.00675.

As for RRIRQRPPRLPRPRPRPWQAPRP, the “shrunken log2 fold change” value came out at 0.124.

For the sequence RRIRTRPPRLPRPRPRPSTAPRP, the “shrunken log2 fold change” value stood at 0.181.

On to RRIRDRPPRLPRPRPRPKGDPRP, for which the “shrunken log2 fold change” value is 0.0039.

In the case of RRIRERPPRLPRPRPRPDLPPRP, the “shrunken log2 fold change” value was -0.156.

Take RRIRPRPPRLPRPRPRPYGMPRP: the “shrunken log2 fold change” value was -0.155.

In the case of RRIRIRPPRLPRPRPRPSNDPRP, the “shrunken log2 fold change” value was -0.779.

Turning to RRIRGRPPRLPRPRPRPGKEPRP, the “shrunken log2 fold change” value was found to be 0.225.

As for RRIRYRPPRLPRPRPRPNGCPRP, the “shrunken log2 fold change” value is -0.000687.
